The text below walks through data of paper PMC9239255, “Switching off Bacterial Flagellar Biogenesis by YdiU-Mediated UMPylation of FlhDC”.

The data set has as its target T1, FlhDC (native, un-UMPylated) (Escherichia coli K-12 MG1655, UniProt P0A8S9;P0ABY7 1-116;1-192).
T1 sequence 1: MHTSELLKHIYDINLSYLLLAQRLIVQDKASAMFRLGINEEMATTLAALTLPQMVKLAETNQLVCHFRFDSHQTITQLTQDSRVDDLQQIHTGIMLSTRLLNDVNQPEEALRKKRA
T1 sequence 2: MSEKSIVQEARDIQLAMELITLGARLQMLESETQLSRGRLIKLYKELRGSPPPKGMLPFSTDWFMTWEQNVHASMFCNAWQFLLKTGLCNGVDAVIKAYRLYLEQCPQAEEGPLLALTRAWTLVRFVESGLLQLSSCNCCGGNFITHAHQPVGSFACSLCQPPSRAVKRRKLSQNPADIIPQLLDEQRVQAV
Nature of the data set: EMSA; 10 nM DNA; shift at protein:DNA ratio greater than 1. To be noted: protein: recombinant; tags: none apparent (pET21b; reverse primer carries stop codon); chain copies: 4;2; label: 5'-FAM on strand 1 (Methods call both oligos FAM-flhB); blunt. In general terms: In EMSA bound probe runs differently from free probe, usually more slowly.

B1: pflhB (flhB promoter) (dsDNA)
DNA 1: ATTAACGCCATAAACCCCGCCTTTTTTACCGCTTACTCTGCCTATTGGCGT
DNA 2: ACGCCAATAGGCAGAGTAAGCGGTAAAAAAGGCGGGGTTTATGGCGTTAAT
Take B1: the binding result was “binds”.
